Measurements as given in patent US20260167699A1 (Chugai, published 2026).

T1: FcγRIIa(R) extracellular domain, C-terminal His tag (human, UniProt P12318 34-217)
T1 construct: extracellular domain; also called 2aR
T1 sequence: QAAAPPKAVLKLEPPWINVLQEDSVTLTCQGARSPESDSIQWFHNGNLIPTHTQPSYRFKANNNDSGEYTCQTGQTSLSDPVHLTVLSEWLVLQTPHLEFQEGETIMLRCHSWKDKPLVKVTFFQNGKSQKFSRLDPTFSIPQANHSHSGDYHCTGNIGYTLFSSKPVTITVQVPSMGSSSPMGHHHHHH

T2: FcγRIIa(H) extracellular domain, C-terminal His tag (human, UniProt P12318 34-217)
T2 construct: extracellular domain; also called 2aH
T2 sequence: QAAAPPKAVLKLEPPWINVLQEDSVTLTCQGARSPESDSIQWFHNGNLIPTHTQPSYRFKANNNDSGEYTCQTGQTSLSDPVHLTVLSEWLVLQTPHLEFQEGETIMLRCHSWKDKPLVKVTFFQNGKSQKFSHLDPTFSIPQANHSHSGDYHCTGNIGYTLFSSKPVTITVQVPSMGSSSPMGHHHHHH

T3: FcγRIIb extracellular domain, C-terminal His tag (human, UniProt P31994 43-217)
T3 construct: extracellular domain; also called 2b
T3 sequence: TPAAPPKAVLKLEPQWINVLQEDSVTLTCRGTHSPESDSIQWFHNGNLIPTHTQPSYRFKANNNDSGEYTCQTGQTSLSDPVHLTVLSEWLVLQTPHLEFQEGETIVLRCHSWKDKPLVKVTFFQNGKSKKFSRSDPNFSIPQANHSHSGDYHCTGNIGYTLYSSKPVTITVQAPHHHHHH

B1: GpH7-A5/GpH7-B3 variant Q295_16H/GpL16-k0 (antibody, human IgG1, kappa)
heavy 1: not shown
heavy 2: not shown
light: DIVMTQSPLSLPVTPGEPASISCQASESLVHSNRNTYLHWYLQKPGQSPQLLIYKVSNRFSGVPDRFSGSGSGTDFTLKISRVEAEDVGVYYCSQNTHVPPTFGQGTKVEIERTVAAPSVFIFPPSDEQLKSGTASVVCLLNNFYPREAKVQWKVDNALQSGNSQESVTEQDSKDSTYSLSSTLTLSKADYEKHKVYACEVTHQGLSSPVTKSFNRGEC
notes: heterodimerized IgG1, one H chain mutated; also called He Ab; copies: 1 + 1 + 2
B2: GpH7-A5/GpH7-B3 variant S298_12R/GpL16-k0 (antibody, human IgG1, kappa)
heavy 1: not shown
heavy 2: not shown
light: DIVMTQSPLSLPVTPGEPASISCQASESLVHSNRNTYLHWYLQKPGQSPQLLIYKVSNRFSGVPDRFSGSGSGTDFTLKISRVEAEDVGVYYCSQNTHVPPTFGQGTKVEIERTVAAPSVFIFPPSDEQLKSGTASVVCLLNNFYPREAKVQWKVDNALQSGNSQESVTEQDSKDSTYSLSSTLTLSKADYEKHKVYACEVTHQGLSSPVTKSFNRGEC
notes: as for B1
B3: GpH7-A5/GpH7-B3 variant S298_01G/GpL16-k0 (antibody, human IgG1, kappa)
heavy 1: not shown
heavy 2: not shown
light: DIVMTQSPLSLPVTPGEPASISCQASESLVHSNRNTYLHWYLQKPGQSPQLLIYKVSNRFSGVPDRFSGSGSGTDFTLKISRVEAEDVGVYYCSQNTHVPPTFGQGTKVEIERTVAAPSVFIFPPSDEQLKSGTASVVCLLNNFYPREAKVQWKVDNALQSGNSQESVTEQDSKDSTYSLSSTLTLSKADYEKHKVYACEVTHQGLSSPVTKSFNRGEC
notes: as for B1
B4: GpH7-A5/GpH7-B3 variant Q295_18N/GpL16-k0 (antibody, human IgG1, kappa)
heavy 1: not shown
heavy 2: not shown
light: DIVMTQSPLSLPVTPGEPASISCQASESLVHSNRNTYLHWYLQKPGQSPQLLIYKVSNRFSGVPDRFSGSGSGTDFTLKISRVEAEDVGVYYCSQNTHVPPTFGQGTKVEIERTVAAPSVFIFPPSDEQLKSGTASVVCLLNNFYPREAKVQWKVDNALQSGNSQESVTEQDSKDSTYSLSSTLTLSKADYEKHKVYACEVTHQGLSSPVTKSFNRGEC
notes: as for B1
B5: GpH7-A5/GpH7-B3 variant S298_02A/GpL16-k0 (antibody, human IgG1, kappa)
heavy 1: not shown
heavy 2: not shown
light: DIVMTQSPLSLPVTPGEPASISCQASESLVHSNRNTYLHWYLQKPGQSPQLLIYKVSNRFSGVPDRFSGSGSGTDFTLKISRVEAEDVGVYYCSQNTHVPPTFGQGTKVEIERTVAAPSVFIFPPSDEQLKSGTASVVCLLNNFYPREAKVQWKVDNALQSGNSQESVTEQDSKDSTYSLSSTLTLSKADYEKHKVYACEVTHQGLSSPVTKSFNRGEC
notes: as for B1
B6: GpH7-A5/GpH7-B3 variant S298_03V/GpL16-k0 (antibody, human IgG1, kappa)
heavy 1: not shown
heavy 2: not shown
light: DIVMTQSPLSLPVTPGEPASISCQASESLVHSNRNTYLHWYLQKPGQSPQLLIYKVSNRFSGVPDRFSGSGSGTDFTLKISRVEAEDVGVYYCSQNTHVPPTFGQGTKVEIERTVAAPSVFIFPPSDEQLKSGTASVVCLLNNFYPREAKVQWKVDNALQSGNSQESVTEQDSKDSTYSLSSTLTLSKADYEKHKVYACEVTHQGLSSPVTKSFNRGEC
notes: as for B1
B7: GpH7-A5/GpH7-B3 variant S298_11K/GpL16-k0 (antibody, human IgG1, kappa)
heavy 1: not shown
heavy 2: not shown
light: DIVMTQSPLSLPVTPGEPASISCQASESLVHSNRNTYLHWYLQKPGQSPQLLIYKVSNRFSGVPDRFSGSGSGTDFTLKISRVEAEDVGVYYCSQNTHVPPTFGQGTKVEIERTVAAPSVFIFPPSDEQLKSGTASVVCLLNNFYPREAKVQWKVDNALQSGNSQESVTEQDSKDSTYSLSSTLTLSKADYEKHKVYACEVTHQGLSSPVTKSFNRGEC
notes: as for B1
B8: GpH7-A5/GpH7-B3 variant S298_08L/GpL16-k0 (antibody, human IgG1, kappa)
heavy 1: not shown
heavy 2: not shown
light: DIVMTQSPLSLPVTPGEPASISCQASESLVHSNRNTYLHWYLQKPGQSPQLLIYKVSNRFSGVPDRFSGSGSGTDFTLKISRVEAEDVGVYYCSQNTHVPPTFGQGTKVEIERTVAAPSVFIFPPSDEQLKSGTASVVCLLNNFYPREAKVQWKVDNALQSGNSQESVTEQDSKDSTYSLSSTLTLSKADYEKHKVYACEVTHQGLSSPVTKSFNRGEC
notes: as for B1
B9: GpH7-A5/GpH7-B3 variant S298_07I/GpL16-k0 (antibody, human IgG1, kappa)
heavy 1: not shown
heavy 2: not shown
light: DIVMTQSPLSLPVTPGEPASISCQASESLVHSNRNTYLHWYLQKPGQSPQLLIYKVSNRFSGVPDRFSGSGSGTDFTLKISRVEAEDVGVYYCSQNTHVPPTFGQGTKVEIERTVAAPSVFIFPPSDEQLKSGTASVVCLLNNFYPREAKVQWKVDNALQSGNSQESVTEQDSKDSTYSLSSTLTLSKADYEKHKVYACEVTHQGLSSPVTKSFNRGEC
notes: as for B1
B10: GpH7-A5/GpH7-B3 variant S298_14T/GpL16-k0 (antibody, human IgG1, kappa)
heavy 1: not shown
heavy 2: not shown
light: DIVMTQSPLSLPVTPGEPASISCQASESLVHSNRNTYLHWYLQKPGQSPQLLIYKVSNRFSGVPDRFSGSGSGTDFTLKISRVEAEDVGVYYCSQNTHVPPTFGQGTKVEIERTVAAPSVFIFPPSDEQLKSGTASVVCLLNNFYPREAKVQWKVDNALQSGNSQESVTEQDSKDSTYSLSSTLTLSKADYEKHKVYACEVTHQGLSSPVTKSFNRGEC
notes: as for B1
B11: GpH7-A5/GpH7-B3 variant S298_15Y/GpL16-k0 (antibody, human IgG1, kappa)
heavy 1: not shown
heavy 2: not shown
light: DIVMTQSPLSLPVTPGEPASISCQASESLVHSNRNTYLHWYLQKPGQSPQLLIYKVSNRFSGVPDRFSGSGSGTDFTLKISRVEAEDVGVYYCSQNTHVPPTFGQGTKVEIERTVAAPSVFIFPPSDEQLKSGTASVVCLLNNFYPREAKVQWKVDNALQSGNSQESVTEQDSKDSTYSLSSTLTLSKADYEKHKVYACEVTHQGLSSPVTKSFNRGEC
notes: as for B1
B12: GpH7-A5/GpH7-B3 variant S298_06M/GpL16-k0 (antibody, human IgG1, kappa)
heavy 1: not shown
heavy 2: not shown
light: DIVMTQSPLSLPVTPGEPASISCQASESLVHSNRNTYLHWYLQKPGQSPQLLIYKVSNRFSGVPDRFSGSGSGTDFTLKISRVEAEDVGVYYCSQNTHVPPTFGQGTKVEIERTVAAPSVFIFPPSDEQLKSGTASVVCLLNNFYPREAKVQWKVDNALQSGNSQESVTEQDSKDSTYSLSSTLTLSKADYEKHKVYACEVTHQGLSSPVTKSFNRGEC
notes: as for B1
B13: GpH7-A5/GpH7-B3 variant S298_04F/GpL16-k0 (antibody, human IgG1, kappa)
heavy 1: not shown
heavy 2: not shown
light: DIVMTQSPLSLPVTPGEPASISCQASESLVHSNRNTYLHWYLQKPGQSPQLLIYKVSNRFSGVPDRFSGSGSGTDFTLKISRVEAEDVGVYYCSQNTHVPPTFGQGTKVEIERTVAAPSVFIFPPSDEQLKSGTASVVCLLNNFYPREAKVQWKVDNALQSGNSQESVTEQDSKDSTYSLSSTLTLSKADYEKHKVYACEVTHQGLSSPVTKSFNRGEC
notes: as for B1

Columns and labels:
Assay in all cases: SPR; He Ab vs HeCon Ab (GpH7-A5/GpH7-B3/GpL16-k0)=100;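 also: surface plasmon resonance at 25 °C with the test antibody captured on a sensor chip via antigenic peptide, protein L or protein A/G and FcγR flowed over as analyte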
[1] = biological target: T4, FcγRIa extracellular domain, C-terminal His tag (human, UniProt P12314 16-292)
T4 construct: extracellular domain; also called 1a

[2] = biological target: T1, FcγRIIa(R) extracellular domain, …
[3] = biological target: T2, FcγRIIa(H) extracellular domain, …
[4] = biological target: T3, FcγRIIb extracellular domain, …
[5] = biological target: T5, FcγRIIIa extracellular domain, C-terminal His tag (human, UniProt P08637 17-208)
T5 construct: extracellular domain; also called 3a
T5 sequence (P08637 other isoform, or with tags, fused parts or gaps): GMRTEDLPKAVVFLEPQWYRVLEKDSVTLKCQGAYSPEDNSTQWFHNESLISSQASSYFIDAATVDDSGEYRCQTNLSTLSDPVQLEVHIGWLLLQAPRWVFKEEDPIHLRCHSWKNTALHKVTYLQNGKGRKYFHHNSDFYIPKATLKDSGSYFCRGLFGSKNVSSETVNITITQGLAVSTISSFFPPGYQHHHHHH

T4 sequence (P12314 other isoform, or with tags, fused parts or gaps): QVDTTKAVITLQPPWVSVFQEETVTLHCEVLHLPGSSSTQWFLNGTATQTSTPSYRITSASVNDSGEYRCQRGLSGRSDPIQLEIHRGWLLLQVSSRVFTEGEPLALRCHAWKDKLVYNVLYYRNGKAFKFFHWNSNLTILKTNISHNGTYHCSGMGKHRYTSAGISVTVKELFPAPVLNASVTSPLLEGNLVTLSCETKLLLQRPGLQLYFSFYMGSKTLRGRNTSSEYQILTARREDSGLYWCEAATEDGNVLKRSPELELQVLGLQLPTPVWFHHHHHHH

Row | Binder | He/Con 1a [1] | He/Con 2aR [2] | He/Con 2aH [3] | He/Con 2b [4] | He/Con 3a [5]
1 | B1 | 101% | 80.5% | 90.1% | 70.3% | 80.2%
2 | B2 | 106% | 81.6% | 67.4% | 58.6% | 52.1%
3 | B3 | 100% | 94.5% | 71.4% | 81.2% | 74.9%
4 | B4 | 101% | 81.7% | 87.8% | 72.8% | 85.7%
5 | B5 | 103% | 87.2% | 74.3% | 74.4% | 151%
6 | B6 | 106% | 82.5% | 83.2% | 65.4% | 103%
7 | B7 | 106% | 91% | 63.9% | 62.2% | 50%
8 | B8 | 104% | 100% | 83% | 110% | 69.2%
9 | B9 | 104% | 86.2% | 84.9% | 71.5% | 90.7%
10 | B10 | 104% | 94.2% | 96.2% | 79% | 106%
11 | B11 | 104% | 75.7% | 71.2% | 62.2% | 80.6%
12 | B12 | 111% | 104% | 95.8% | 103% | 87.2%
13 | B13 | 106% | 80.4% | 75.5% | 66.3% | 77.6%
